Assay results: publication PMC6791870, “Switch of the interactions between the ribosomal stalk and EF1A in the GTP- and GDP-bound conformations” (Scientific Reports, 2019)
Changes are numbered by the printed parent chain. Primed or numbered codes have the meaning given here. Where no end group is shown, it is not given here. FITC′ = fluorescein isothiocyanate label

Legend:
Test in all cases: fluorescence polarisation; FITC-labeled PhoP1C14 peptide (50 nM) mixed with 0-160 µM of the complex of each PhoEF1A mutant, GTP and PfuPelota; 20 mM HEPES-KOH pH 7.6, 10 mM MgCl2, 150 mM KCl, 0.1 mg/ml BSA; 25 °C; nonlinear regression, one site specific binding (GraphPad Prism 6); average of three replicates
Conditions in all cases: both partners purified
[1] = molecular target: T1, PhoEF1A M420S•GTP•PfuPelota complex (Pyrococcus horikoshii | Pyrococcus …, UniProt O59153 1-428, M420S)
T1 construct: elongation factor aEF1A of Pyrococcus horikoshii (PhoEF1A); complex of the EF1A mutant, GTP and PfuPelota; also called M420(I423)S; P. horikoshii aEF1A-M420S
T1 sequence 1: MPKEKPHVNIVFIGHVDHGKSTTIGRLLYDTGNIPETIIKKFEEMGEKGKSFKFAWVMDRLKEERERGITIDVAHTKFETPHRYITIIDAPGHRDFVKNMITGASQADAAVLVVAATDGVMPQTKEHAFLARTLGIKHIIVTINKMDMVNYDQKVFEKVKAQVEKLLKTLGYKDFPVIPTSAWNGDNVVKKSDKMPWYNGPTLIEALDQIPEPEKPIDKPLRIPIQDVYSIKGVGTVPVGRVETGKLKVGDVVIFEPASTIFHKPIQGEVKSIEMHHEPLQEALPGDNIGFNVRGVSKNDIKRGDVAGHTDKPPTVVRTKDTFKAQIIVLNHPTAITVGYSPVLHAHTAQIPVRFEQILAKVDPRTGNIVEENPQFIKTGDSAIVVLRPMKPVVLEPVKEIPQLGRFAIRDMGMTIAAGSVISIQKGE
T1 sequence 2: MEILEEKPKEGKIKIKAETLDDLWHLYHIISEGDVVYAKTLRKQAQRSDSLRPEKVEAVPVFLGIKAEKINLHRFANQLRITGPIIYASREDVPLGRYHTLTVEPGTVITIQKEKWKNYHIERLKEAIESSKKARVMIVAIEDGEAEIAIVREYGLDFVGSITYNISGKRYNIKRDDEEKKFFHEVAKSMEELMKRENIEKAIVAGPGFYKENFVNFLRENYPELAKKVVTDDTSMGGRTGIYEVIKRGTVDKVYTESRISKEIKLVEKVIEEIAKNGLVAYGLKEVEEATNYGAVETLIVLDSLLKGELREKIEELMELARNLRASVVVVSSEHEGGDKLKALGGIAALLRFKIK

[2] = molecular target: T2, PhoEF1A Q326A•GTP•PfuPelota complex (Pyrococcus horikoshii | Pyrococcus …, UniProt O59153 1-428, Q326A)
T2 construct: elongation factor aEF1A of Pyrococcus horikoshii (PhoEF1A); complex of the EF1A mutant, GTP and PfuPelota; also called Q326(R329)A; P. horikoshii aEF1A-Q326A
T2 sequence 1: T1 sequence 1 with Q326A, S420M
T2 sequence 2: T1 sequence 2

[3] = molecular target: T3, PhoEF1A R132A•GTP•PfuPelota complex (Pyrococcus horikoshii | Pyrococcus …, UniProt O59153 1-428, R132A)
T3 construct: elongation factor aEF1A of Pyrococcus horikoshii (PhoEF1A); complex of the EF1A mutant, GTP and PfuPelota; also called R132(R140)A; P. horikoshii aEF1A-R132A
T3 sequence 1: T1 sequence 1 with R132A, S420M
T3 sequence 2: T1 sequence 2

Kd [1]: 80.1 ± 8.7 µM
Kd [2]: 11.1 ± 0.8 µM
Kd [3]: 87.8 ± 12 µM
B1: FITC-labeled C-terminal 14-mer peptide of P. horikoshii aP1 (PhoP1C14) (peptide)
peptide: {FITC′}-SEEEALAGLSALFG
notes: also called FITC-labeled peptide of PhoP1C14; source: synthetic peptide (Hokkaido System Science Co., Ltd)
